Substrate in the data set: Nc1ncnc2c1ncn2[C@@H]1O[C@H](COP(=O)(O)OP(=O)(O)OP(=O)(O)O)[C@@H](O)[C@H]1O
The experiment in a line: ATPase assay, free ADP versus time, initial velocities. The class given is biochemical, Saccharomyces cerevisiae. The following applies: 37 °C, saturating aI5β intron RNA transcript.

B1: Mss116p (Saccharomyces cerevisiae S288C) (protein)
chain: NHITWAVSRRLYNDGNRDQRNFGRNQRNNNSNRYRNSRFNSRPRTRSREDDDEVHFDKTTFSKLIHVPKEDNSKEVTLDSLLEEGVLDKEIHKAITRMEFPGLTPVQQKTIKPILSSEDHDVIARAKTGTGKTFAFLIPIFQHLINTKFDSQYMVKAVIVAPTRDLALQIEAEVKKIHDMNYGLKKYACVSLVGGTDFRAAMNKMNKLRPNIVIATPGRLIDVLEKYSNKFFRFVDYKVLDEADRLLEIGFRDDLETISGILNEKNSKSADNIKTLLFSATLDDKVQKLANNIMNKKECLFLDTVDKNEPEAHERIDQSVVISEKFANSIFAAVEHIKKQIKERDSNYKAIIFAPTVKFTSFLCSILKNEFKKDLPILEFHGKITQNKRTSLVKRFKKDESGILVCTDVGARGMDFPNVHEVLQIGVPSELANYIHRIGRTARSGKEGSSVLFICKDELPFVRELEDAKNIVIAKQEKYEPSEEIKSEVLEAVTEEPEDISDIVISLISSYRSCIKEYRFSERRILPEIASTYGVLLNDPQLKIPVSRRFLDKLGLSRSPIGKAMFEIRDYSSRDGNNKSYDYDDDSEISFRGNKNYNNRSQNRDYDDEPFRRSNNNRRSFSRSNDKNNYSSRNSNIY
Broadly, the Km is the concentration of substrate that gives half-maximal velocity. Usually kcat stands for the maximal rate divided by the concentration of active sites. On to B1, for which the Km stood at 167 ± 20 µM and the kcat is 0.496 ± 0.0603 s⁻¹.

B2: Mss116p (Saccharomyces cerevisiae S288C; R245E) (protein)
chain: NHITWAVSRRLYNDGNRDQRNFGRNQRNNNSNRYRNSRFNSRPRTRSREDDDEVHFDKTTFSKLIHVPKEDNSKEVTLDSLLEEGVLDKEIHKAITRMEFPGLTPVQQKTIKPILSSEDHDVIARAKTGTGKTFAFLIPIFQHLINTKFDSQYMVKAVIVAPTRDLALQIEAEVKKIHDMNYGLKKYACVSLVGGTDFRAAMNKMNKLRPNIVIATPGELIDVLEKYSNKFFRFVDYKVLDEADRLLEIGFRDDLETISGILNEKNSKSADNIKTLLFSATLDDKVQKLANNIMNKKECLFLDTVDKNEPEAHERIDQSVVISEKFANSIFAAVEHIKKQIKERDSNYKAIIFAPTVKFTSFLCSILKNEFKKDLPILEFHGKITQNKRTSLVKRFKKDESGILVCTDVGARGMDFPNVHEVLQIGVPSELANYIHRIGRTARSGKEGSSVLFICKDELPFVRELEDAKNIVIAKQEKYEPSEEIKSEVLEAVTEEPEDISDIVISLISSYRSCIKEYRFSERRILPEIASTYGVLLNDPQLKIPVSRRFLDKLGLSRSPIGKAMFEIRDYSSRDGNNKSYDYDDDSEISFRGNKNYNNRSQNRDYDDEPFRRSNNNRRSFSRSNDKNNYSSRNSNIY
B2: the Km is 554 ± 153 µM and the kcat was 8.18 ± 0.08 ^e^, ^f.

B3: Mss116p (Saccharomyces cerevisiae S288C; T307A) (protein)
chain: NHITWAVSRRLYNDGNRDQRNFGRNQRNNNSNRYRNSRFNSRPRTRSREDDDEVHFDKTTFSKLIHVPKEDNSKEVTLDSLLEEGVLDKEIHKAITRMEFPGLTPVQQKTIKPILSSEDHDVIARAKTGTGKTFAFLIPIFQHLINTKFDSQYMVKAVIVAPTRDLALQIEAEVKKIHDMNYGLKKYACVSLVGGTDFRAAMNKMNKLRPNIVIATPGRLIDVLEKYSNKFFRFVDYKVLDEADRLLEIGFRDDLETISGILNEKNSKSADNIKTLLFSAALDDKVQKLANNIMNKKECLFLDTVDKNEPEAHERIDQSVVISEKFANSIFAAVEHIKKQIKERDSNYKAIIFAPTVKFTSFLCSILKNEFKKDLPILEFHGKITQNKRTSLVKRFKKDESGILVCTDVGARGMDFPNVHEVLQIGVPSELANYIHRIGRTARSGKEGSSVLFICKDELPFVRELEDAKNIVIAKQEKYEPSEEIKSEVLEAVTEEPEDISDIVISLISSYRSCIKEYRFSERRILPEIASTYGVLLNDPQLKIPVSRRFLDKLGLSRSPIGKAMFEIRDYSSRDGNNKSYDYDDDSEISFRGNKNYNNRSQNRDYDDEPFRRSNNNRRSFSRSNDKNNYSSRNSNIY
As for B3, the Km came out at 180 ± 4 µM and the kcat came out at 0.061 ± 0.0045 s⁻¹.

B4: Mss116p (Saccharomyces cerevisiae S288C; S305A) (protein)
chain: NHITWAVSRRLYNDGNRDQRNFGRNQRNNNSNRYRNSRFNSRPRTRSREDDDEVHFDKTTFSKLIHVPKEDNSKEVTLDSLLEEGVLDKEIHKAITRMEFPGLTPVQQKTIKPILSSEDHDVIARAKTGTGKTFAFLIPIFQHLINTKFDSQYMVKAVIVAPTRDLALQIEAEVKKIHDMNYGLKKYACVSLVGGTDFRAAMNKMNKLRPNIVIATPGRLIDVLEKYSNKFFRFVDYKVLDEADRLLEIGFRDDLETISGILNEKNSKSADNIKTLLFAATLDDKVQKLANNIMNKKECLFLDTVDKNEPEAHERIDQSVVISEKFANSIFAAVEHIKKQIKERDSNYKAIIFAPTVKFTSFLCSILKNEFKKDLPILEFHGKITQNKRTSLVKRFKKDESGILVCTDVGARGMDFPNVHEVLQIGVPSELANYIHRIGRTARSGKEGSSVLFICKDELPFVRELEDAKNIVIAKQEKYEPSEEIKSEVLEAVTEEPEDISDIVISLISSYRSCIKEYRFSERRILPEIASTYGVLLNDPQLKIPVSRRFLDKLGLSRSPIGKAMFEIRDYSSRDGNNKSYDYDDDSEISFRGNKNYNNRSQNRDYDDEPFRRSNNNRRSFSRSNDKNNYSSRNSNIY
On to B4, for which the Km amounted to 162 ± 16 µM and the kcat was determined as 0.322 ± 0.142 s⁻¹.

B5: Mss116p (Saccharomyces cerevisiae S288C; Q412A) (protein)
chain: NHITWAVSRRLYNDGNRDQRNFGRNQRNNNSNRYRNSRFNSRPRTRSREDDDEVHFDKTTFSKLIHVPKEDNSKEVTLDSLLEEGVLDKEIHKAITRMEFPGLTPVQQKTIKPILSSEDHDVIARAKTGTGKTFAFLIPIFQHLINTKFDSQYMVKAVIVAPTRDLALQIEAEVKKIHDMNYGLKKYACVSLVGGTDFRAAMNKMNKLRPNIVIATPGRLIDVLEKYSNKFFRFVDYKVLDEADRLLEIGFRDDLETISGILNEKNSKSADNIKTLLFSATLDDKVQKLANNIMNKKECLFLDTVDKNEPEAHERIDQSVVISEKFANSIFAAVEHIKKQIKERDSNYKAIIFAPTVKFTSFLCSILKNEFKKDLPILEFHGKITANKRTSLVKRFKKDESGILVCTDVGARGMDFPNVHEVLQIGVPSELANYIHRIGRTARSGKEGSSVLFICKDELPFVRELEDAKNIVIAKQEKYEPSEEIKSEVLEAVTEEPEDISDIVISLISSYRSCIKEYRFSERRILPEIASTYGVLLNDPQLKIPVSRRFLDKLGLSRSPIGKAMFEIRDYSSRDGNNKSYDYDDDSEISFRGNKNYNNRSQNRDYDDEPFRRSNNNRRSFSRSNDKNNYSSRNSNIY
As for B5, the Km stood at 177 ± 33 µM and the kcat is 0.393 ± 0.0933 s⁻¹.

(Values after article PMC2878758.)
